This is an account of results in article PMC8752778, “The RNA methyltransferase METTL8 installs m3C32 in mitochondrial tRNAsThr/Ser(UCN) to optimise tRNA structure and mitochondrial translation”.

By Kd is commonly meant the equilibrium constant for the complex coming apart.

Data set [1] has as its target T1, His14-MBP-METTL8 (Homo sapiens, UniProt B3KW44 1-407).
T1 sequence: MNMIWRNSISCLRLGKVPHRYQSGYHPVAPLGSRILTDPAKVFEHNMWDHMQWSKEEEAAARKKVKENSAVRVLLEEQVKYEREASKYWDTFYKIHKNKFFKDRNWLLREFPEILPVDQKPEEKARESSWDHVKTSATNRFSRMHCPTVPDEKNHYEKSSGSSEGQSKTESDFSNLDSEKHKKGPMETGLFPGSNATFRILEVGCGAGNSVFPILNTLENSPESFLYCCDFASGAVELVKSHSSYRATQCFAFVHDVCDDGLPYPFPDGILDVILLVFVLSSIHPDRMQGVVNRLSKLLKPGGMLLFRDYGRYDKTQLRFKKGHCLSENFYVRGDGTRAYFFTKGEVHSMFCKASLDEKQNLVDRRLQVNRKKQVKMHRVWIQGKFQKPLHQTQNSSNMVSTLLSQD
Nature of the data set: fluorescence anisotropy; affinity similar to ASLs; Kd only in figure; 30 mM phosphate pH 7.3, 200 mM KCl, 20 nM labelled oligonucleotide, 0-2 uM protein, 5 min at room temperature, measured at 22 C. Conditions: protein: recombinant; tags: N-terminal His14-MBP; label: fluorescein (5' click per Methods); single strand. In general terms: Polarisation of emitted light reports the rotation of a fluorescent probe.

The target in data set [2] is T1, His14-MBP-METTL8. Kind of data set: fluorescence anisotropy; 30 mM phosphate pH 7.3, 200 mM KCl, 20 nM labelled oligonucleotide, 0-2 uM protein, 5 min at room temperature, measured at 22 C. As to conditions: protein: recombinant; tags: N-terminal His14-MBP; label: fluorescein (5' click per Methods); hairpin.
Data set [3] concerns the target T1, His14-MBP-METTL8. Kind of data set: fluorescence anisotropy; high affinity; Kd only in figure; 30 mM phosphate pH 7.3, 200 mM KCl, 20 nM labelled oligonucleotide, 0-2 uM protein, 5 min at room temperature, measured at 22 C. Conditions: protein: recombinant; tags: N-terminal His14-MBP; label: fluorescein (5' click per Methods); hairpin.
The target of data set [4] is T1, His14-MBP-METTL8. Kind of data set: fluorescence anisotropy; up to 2 uM protein; 30 mM phosphate pH 7.3, 200 mM KCl, 20 nM labelled oligonucleotide, 0-2 uM protein, 5 min at room temperature, measured at 22 C. Conditions: protein: recombinant; tags: N-terminal His14-MBP; label: 5' fluorescein.
Data set [5] addresses T1, His14-MBP-METTL8. Nature of the data set: fluorescence anisotropy; high affinity; lower than i6A37 ASL; Kd only in figure; 30 mM phosphate pH 7.3, 200 mM KCl, 20 nM labelled oligonucleotide, 0-2 uM protein, 5 min at room temperature, measured at 22 C. As to conditions: protein: recombinant; tags: N-terminal His14-MBP; label: fluorescein (5' hexynyl/6FAM azide click); hairpin.

The target of data set [6] is T1, His14-MBP-METTL8. Nature of the data set: fluorescence anisotropy; 30 mM phosphate pH 7.3, 200 mM KCl, 20 nM labelled oligonucleotide, 0-2 uM protein, 5 min at room temperature, measured at 22 C. Conditions: protein: recombinant; tags: N-terminal His14-MBP; label: 5' fluorescein; hairpin.

B1: Unstructured RNA R420 (ssRNA)
RNA: GUAAAAGUCGUAACAAAGGU
On to B1, for which, in data set [1], the binding result is “binds”.

B2: Unstructured RNA 2 (ssRNA)
RNA: GACAUACUGACCCUUCAAAUA
As to B2, in data set [1], the binding result is reported as “binds”.

B3: mt-tRNASer(UCN) m3C32 i6A37 ASL (structured_RNA)
RNA: GUUGGCUUGAAACCAGCU
modifications: m3C at strand position 6 (C32); i6A at strand position 11 (A37)
With B3, the binding signal in data set [2] is ~2.5 fold weaker than i6A37 ASL (N6).

B4: mt-tRNAMet ASL (structured_RNA)
RNA: UCGGGCCCAUACCCCGA
Take B4: in data set [3], the binding result is “binds”.

B5: DNA oligonucleotide (ssDNA)
DNA: GATGTGCAGCTGCACATC
B5: in data set [4], the binding result was “no binding”.

B6: mt-tRNASer(UCN) ASL unmodified (structured_RNA)
RNA: GUUGGCUUGAAACCAGCU
As to B6, the binding result in data set [5] was “binds”.

B7: mt-tRNASer(UCN) i6A37 ASL (structured_RNA)
RNA: GUUGGCUUGAAACCAGCU
modifications: i6A at strand position 11 (A37)
Regarding B7, in data set [6], the Kd was found to be 200 nM.
